Experimental data: patent publication US20150266969A1

B1: PEP2-42 Fc (Fc fusion, not shown: a dimerising Fc or GST)
chain: EVQLLESGGGLVQPGGSLRLSCAASGFTFDNVEMSWVRQAPGKGLEWVSSIGSKGEDTYYADSVKGRFTISRDNSKNTLYLQMNSLRAEDTAVYYCAQTVNVPEPAFAYWGQGTLVTVSS
B2: PEP2-42-1 Fc (Fc fusion, not shown: a dimerising Fc or GST)
chain: EVQMLESGGGLVQPGGSLRLSCAASGFTFDNVEMSWVRQAPGKGLEWVSSIGTKGEYTYYADSVKGRFTISRDNSKNTLYLQMNSMRAEDTAVYYCAQTVNVPEPAFAYWGQGTLVTVLS
B3: PEP2-2-2 Fc (Fc fusion, not shown: a dimerising Fc or GST)
chain: EVQLLESGGGLVQPGGSLRLSCAASGFTFRNHDMGWVRQAPGKGLEWVSAISGSGGSTYYADSVKGRFTISRDNSKNTLYLQMNSLRAEDTAVYYCAEPKPMDTEFDYRSQGTLVTVSS
B4: PEP2-2-1-1 Fc (Fc fusion, not shown: a dimerising Fc or GST)
chain: EVQLLESGGGLVQPGGSLRLSCAASGFTFRNHDMGWVRQAPGKGLEWVSAISGSGGSTYYADSVKGRFTISRDNSKNTLYLQMNSLRAEDTAVYYCAEPKPMDTEFDYRSPGTLVTVSS
B5: PEP2-247-1 Fc (Fc fusion, not shown: a dimerising Fc or GST)
chain: EVQLLESGGGLVQPGGSLRLSCAASGFTFRNHDMGWVRQAPGKGLEWVSAISGSGGGTYYADSVKGRFTISRDNSKNTLYLQMNSLRAEDTAVYYCAEPSHFDRPFDYRSQGTLVTVSS
B6: PEP2-472-1 Fc (Fc fusion, not shown: a dimerising Fc or GST)
chain: EVQLLESGGGLVQPGGSLRLSCAASGYTFPMKDMGWVRQAPGKGLEWVSAISGSGGGTYYADSVKGRFTISRDNSKNTLYLQMNSLRAEDTAVYYCAEPKPMDTEFDYRSQGTLVTVSS
B7: PEP2-47-1 Fc (Fc fusion, not shown: a dimerising Fc or GST)
chain: EVQLLESGGGLVQPGGSLRLSCAASGYTFPMKDMGWVRQAPGKGLEWVSAISGSGGGTYYADSVKGRFTISRDNSKNTLYLQMNSLRAEDTAVYYCAEPSHFDRPFDYRSQGTLVTVSS
B8: PEP2-247-2 Fc (Fc fusion, not shown: a dimerising Fc or GST)
chain: EVQLLESGGGLVQPGGSLRLSCAASGFTFRNHDMGWVRQAPGKGLEWVSAISGSGGSTYYANSVKGRFTISRDNSKNTLYLQMNSLRAEDTAVYYCAEPSHFDRPFDYRSQGTLVTVSS
B9: PEP2-47 Fc (Fc fusion, not shown: a dimerising Fc or GST)
chain: EVQLLESGGGLVQPGGSLRLSCAASGFTFPMKDMGWVRQAPGKGLEWVSAISGSGGSTYYADSVKGRFTISRDNSKNTLYLQMNSLRAEDTAVYYCAEPSHFDRPFDYWGQGTLVTVSS

target: PEP2-4 dAb; test: immunohistochemistry on cervical cancer sections, 20 nM PEP2-4 with added free peptide; estimate between no inhibition at 10 uM and clear inhibition at 100 uM
Sequence (chain, as listed by the source): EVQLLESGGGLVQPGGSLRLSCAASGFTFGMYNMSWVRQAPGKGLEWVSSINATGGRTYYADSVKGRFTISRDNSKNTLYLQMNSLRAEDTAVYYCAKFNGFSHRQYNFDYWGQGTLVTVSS

For GHNYTTRNILPGLNITC (modifications not checked) [E200 peptide], the IC50 was 40000 to 50000 nM.

target: E200 peptide; test: Biacore, PEP2-Fc on E200

Compared with B1, B2 is 46-fold lower in Kd: 5.5 nM for the first, 0.12 nM for the second. The second binds more tightly here.

B3 and B4 are within 1.5-fold of each other in Kd: 0.1 nM for the first, 0.09 nM for the second.

Going from B5 to B6, the Kd falls from 0.19 nM to 0.09 nM (2.1-fold).

Compared with B7, B8 is 4.1-fold higher in Kd: 0.11 nM for the first, 0.45 nM for the second.

With B9 the Kd was 7.5 nM.
